Measurements as given in patent US20220112276A1 (Janssen / Centocor, published 2022).
Substitutions are numbered along the chain they refer to. One block for each binder: values may come before it.

Target: T1, recombinant human pIgR (hpIgR) (human, UniProt P01833 19-638, limits assumed)
T1 construct: probably the ECD
Experiment: ELISA, periplasmic VHH, BSA subtracted
Method: Initial Library Screening: After each panning round showing enrichment, 94 individual clones were expressed and tested in an off-phage initial screen for specific binding to mpIgR or hpIgR (respectively depending on the antigen used). Screening of monoclones in an off-phage format was performed by transforming the phagemid pool into a non-amber-suppressor strain of E. coli and picking random colonies. The VHH proteins were recovered in the periplasmic fraction by performing osmotic shock. Periplasmic fractions containing His-tagged nanobodies were tested for binding to hpIgR or mpIgR. Bound nanobody was detected with a polyclonal anti-alpaca VHH domain antibody. Each clone was also tested for non-specific binding to BSA in parallel. The ELISA values obtained on BSA were subtracted from the ELISA values obtained on the respective pIgR antigen.
Repeat Testing of Positive Hits: The hits identified in the initial screen of the phage pools were re-tested for binding to either hpIgR or mpIgR. Periplasmic fractions were prepared again by performing osmotic shock. Periplasmic fractions containing His-tagged nanobodies were tested for binding to mpIgR. In this assay, bound nanobody was detected with an anti-VHH antibody. Each clone was also tested for non-specific binding to BSA in parallel. The ELISA values obtained on BSA were subtracted from the ELISA values obtained on the respective pIgR antigen.

T1 sequence (P01833 19-638 limits assumed): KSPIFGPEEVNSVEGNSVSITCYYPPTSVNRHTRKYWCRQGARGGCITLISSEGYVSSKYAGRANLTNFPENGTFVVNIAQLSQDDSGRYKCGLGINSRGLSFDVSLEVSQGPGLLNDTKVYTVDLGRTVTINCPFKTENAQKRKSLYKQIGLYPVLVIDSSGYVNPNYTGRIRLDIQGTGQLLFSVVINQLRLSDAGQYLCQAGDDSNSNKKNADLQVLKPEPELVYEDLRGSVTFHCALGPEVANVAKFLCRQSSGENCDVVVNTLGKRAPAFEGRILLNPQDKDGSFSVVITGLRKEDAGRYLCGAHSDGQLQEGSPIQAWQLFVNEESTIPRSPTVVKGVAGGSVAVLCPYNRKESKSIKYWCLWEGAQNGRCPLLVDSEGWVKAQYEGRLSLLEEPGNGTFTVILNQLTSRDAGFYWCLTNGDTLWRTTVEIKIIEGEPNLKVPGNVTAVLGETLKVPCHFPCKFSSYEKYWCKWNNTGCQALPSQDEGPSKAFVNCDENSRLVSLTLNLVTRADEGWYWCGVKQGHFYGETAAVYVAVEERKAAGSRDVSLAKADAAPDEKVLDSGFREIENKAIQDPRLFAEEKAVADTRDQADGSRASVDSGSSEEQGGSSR

B2: 01C02R3LS His-tagged VHH (VHH)
VHH: QVQLVESGGGLVQAGDSLRLSCAASGRTRTTYGMGWFRQAPGKEREFVTTITWSGSTNYKYYADSVKGRFTISRDNAKNTVYLQMNSLKPDDTAVYYCAASTVLTDPRVPTEYDYWGQGTQVTVSS
ELISA (OD): 2.01 OD

B4: 01H11R2LS His-tagged VHH (VHH)
VHH: B2 VHH with Q1E, R29L, T49A, T52K, D91E, S101G, T105G, P110L, T111N, Q121L
ELISA (OD): 0.43 OD

B5: 02E01R3LS His-tagged VHH (VHH)
VHH: B2 VHH with R29F, T105R
ELISA (OD): 1.54 OD

B7: 01G08R3LS His-tagged VHH (VHH)
VHH: B2 VHH with R29F, A40G, T49A, A63T, D91E, V109R, P110L, T111N
ELISA (OD): 2.41 OD

B8: 01C08R2L His-tagged VHH (VHH)
VHH: B2 VHH with Q1E, R29F, M34V
ELISA (OD): 1.98 OD

B9: 02B03R3 His-tagged VHH (VHH)
VHH: EVQLVESGGGLVQSGGQLRLSCAASGSIASIRDMAWYRQAPGKQRELVAIFARGGTTHYADSVKGRFTISRDNAKNTVYLQMNSLEPEDTAAYYCNAEVATMFQPGFRDYWGRGTLVTVSS
ELISA (OD): 0.44 OD

B13: 01A09R2 His-tagged VHH (VHH)
VHH: EVQLVESGGGLVQAGGSLRLSCAASGRTFSSNPMGWFRQAPGKEREFVAAISWSGGGTYYADSVKGRFTISRDNAKNTVTLQMNSLKPEDTAVYYCASRDYSDPISLWVEDREYDYWGQGTQVTVSS
ELISA (OD): 1.86 OD

B14: 03D05R3 His-tagged VHH (VHH)
VHH: B13 VHH with D111G, Q122L
ELISA (OD): 2.29 OD

B15: 03B07R3 His-tagged VHH (VHH)
VHH: B13 VHH with E1Q, Q122L
ELISA (OD): 2.19 OD

B17: 01E11R2 His-tagged VHH (VHH)
VHH: QVQLVESGGGLVQTGGSLRLSCAASGLTFSSYTMGWFRQAPGKEREFVAAISWGGASTWYADSVKGRFTISRDNAKTMVYLQMNGLKPEDTAVYYCAKGRNNGYATAVRAYDYWGQGTLVTVSS
ELISA (OD): 2.01 OD

B18: 03D01R3 His-tagged VHH (VHH)
VHH: EVQLVESGGGLVQPGGSLRLSCAASGFTFRTYYMGWFRQAPGKEREFVGVTRSSDDVTYYADSVKGRFTISRDNAKNTVYLQMSRLKPEDTAVYYCAAKPVPITRYSFPQIGEEYDYWGQGTLVTVSS
ELISA (OD): 1.84 OD

B20: 01C09R3 His-tagged VHH (VHH)
VHH: B18 VHH with P14A
ELISA (OD): 1.29 OD

B21: 01A01R3 His-tagged VHH (VHH)
VHH: EVQLVESGGGLVQAGGSLRLSCAASGSGRTFTSYTMGWFRQAPGKEREFVSALTWADDSTYYKYYADSMKGRLTISRDNAKNTVYLQMNSLKPEDTAVYYCVATGRGLTYDPRDRRKYDYWGQGTQVTVSS
ELISA (OD): 0.91 OD

B22: 03C05R3 His-tagged VHH (VHH)
VHH: EVQLVESGGGLVKAEGSLRLSCVASTSIASINVMGWYRQAPGKERELVARISGGGITHYAESVEGRFTISRDNAKNTVHLQMNGLKPEDTAAYYCKADVFASSGHVTTYWGQGTLVTVSS
ELISA (OD): 0.99 OD

B23: 01C01R2LS His-tagged VHH (VHH)
VHH: QVQLVESGGGLQQAGGSLRLSCAASGRTVTVMTVGWFRQAPGKEREFVAAITMYGERTYYADSVKGRFTISRDNAKNTVDLQMNSLKPEDAAVYYCAARTYVSGIYDRFDDYNYWGQGTQVTVSS
ELISA (OD): 0.82 OD

B25: 02G04R3 His-tagged VHH (VHH)
VHH: QVQLVESGGGLVQAGGSLRLSCAANGRAANAYAVGWFRQAPGKEREFVAHIRWNGGRTAYADSVKGRFTISRDDAKNTVYLQMDSLKPEDTAVYYCAEDTNPDAFGDLRLPSEYEYWGQGTQVTVSS
ELISA (OD): 0.93 OD

B27: 01B01R3 His-tagged VHH (VHH)
VHH: QVQLVESGGGLVQAGGSLRLSCAASGRTFSSYAMGWFRQAPGKEREFVAVISWSGGSTYYADSVKGRFTISRDNAKNTVYLQMNSLKPEDTAVYYCASGEQPGSNRPYIPEQPIEFMPTDYPSWYDYWGQGTLVTVSS
ELISA (OD): 1.68 OD

B28: 01F03R2 His-tagged VHH (VHH)
VHH: B27 VHH with L133Q
ELISA (OD): 2.1 OD

B29: 01C01R2L His-tagged VHH (VHH)
VHH: QVQLVESGGGLVQAGGSLRLSCAASGRTLRSYIVGWFRQAPGKEREFVAAVTWSDGRRVTADPVKGRFTISRDNAKNTVYLQMDSLKPEDAAVYYCAVSRGGAYEYSRAYEYWGQGTLVTVSS
ELISA (OD): 1.97 OD

B30: 02G06R3 His-tagged VHH (VHH)
VHH: EVQLVESGGGLVQAGGSLRLSCAASGRTFDSYAMGWFRQAPGKEREFVAAISWTGGSTDYADSVKGRFTISRDNAKNTVYLQMDSLKPEDTAVYYCAAEVVGRDVTTMYRVSGLEYEYDYWGQGTQVTVSS
ELISA (OD): 1.8 OD

B31: 01G02R2LS His-tagged VHH (VHH)
VHH: QVQLVESGGGLVQAGDSLALSCAGSGDTFSNYAMGWFRQAPGKEREFVADISWYGANIGYADSVKGRFTISRDNAKNMVTLRMNSLKPEDTAVYYCAADRNHWPVKGDYWGQGTQVTVSS
ELISA (OD): 1.62 OD

B32: 01B05R2 His-tagged VHH (VHH)
VHH: EVQLVESGGGLVQAGGSLRLSCAASGRSLSFDTYAMGWFRQAPGKEREFVASIDWNGGSTYYADSVKGRFTISRDNARNTVNLRMNSLKPDDTAVYYCAAARYYTSGTYFPANYWGQGTQVTVSS
ELISA (OD): 2.07 OD

B33: 03H05R3 His-tagged VHH (VHH)
VHH: QVQLVESGGGLVQAGGSLSLSCAASGRSLSFDTYAMSWFRQAPGKEREFVASIDWNGGSTSYADSMKGRFTISRDNAKNTVNLRIRSLKPDDTAVYFCASARYYIGGTYFPANYWGQGTQVTVSS
ELISA (OD): 0.46 OD

B36: 02D06R3 His-tagged VHH (VHH)
VHH: QVQLVESGGGLVQPGGRLRLSCAASGSIFSIRDMAWYRQAPGKQREWVAIAARGGSTHYADSVKGRFTISRDNAKNTVYLQMNTLEPEDTAAYYCNAEVATMIQPGFRDYWGQGTQVTVSS
ELISA (OD): 2.16 OD

Second part, the binder after the results:

ELISA (OD): 1.97 OD
B1: 02H11R3 His-tagged VHH (VHH)
VHH: EVQLVESGGGSVQAGGSLRLSCAASGRTFSNYAMGWFRQAPGKEREFVAGISRSGGSTYSADSVKGRFTISRDNAKNTVYLQMNSLKPEDTAVYYCAADGLDYALGFRGDYWGQGTQVTVSS

ELISA (OD): 1.87 OD
B3: 01H06R3L His-tagged VHH (VHH)
VHH: B2 VHH with Q1E, S56P, V81A

ELISA (OD): 2.04 OD
B6: 01B10R3L His-tagged VHH (VHH)
VHH: QVQLVESGGGLVQAGDSLRLSCAASGRTFTTYVMGWFRQPPGKEREFVATISWSGSTTYKYYADSVKGRFTISRDNAKNTVYLQMNSLKPEDTAVYYCAASTVVADPRAPNEYDYWGQGTQVTVSS

ELISA (OD): 2.4 OD
B10: 02H04R3 His-tagged VHH (VHH)
VHH: B36 VHH with Q1E, A35G, W47L, A51F, T84S

ELISA (OD): 2.03 OD
B11: 01A03R3L His-tagged VHH (VHH)
VHH: B9 VHH with S14P, I31V, E46G

ELISA (OD): 1.77 OD
B12: 01C03R3L His-tagged VHH (VHH)
VHH: B36 VHH with A35G, W47L, A51F, T84S, Q116L

ELISA (OD): 2.2 OD
B16: 01F01R2 His-tagged VHH (VHH)
VHH: B13 VHH with E1Q

ELISA (OD): 1.13 OD
B19: 02B09R3 His-tagged VHH (VHH)
VHH: B18 VHH with Q39R, N77D

ELISA (OD): 2 OD
B24: 02G03R3 His-tagged VHH (VHH)
VHH: EVQLVESGGGLVQAGGSLRLSCAASGMPDNIFSIKTMGWYRQAPGKERELVAAITSGGSTNYGDSVKDRFTISRDRIENTVNLEMNNLKPEDTAVYTCHADLTYIRFQDMEYWGKGTQVTVSS

ELISA (OD): 2.1 OD
B26: 03A08R3 His-tagged VHH (VHH)
VHH: QVQLVESGGGLVQAGGSLRLSCAASGRTSSIYGMGWFRQAPGKEREFVAAISWSAGRTYHADSVKGRFTISRDNAKNMVYLQMDKMKPGDTAVYYCAARRAPELLSDYTQKPEEIGTYHYWGQGTLVTVSS

ELISA (OD): 1.77 OD
B34: 03C10R3 His-tagged VHH (VHH)
VHH: B32 VHH with E1Q, A14R, S30G, S59N, R78K, V95A, Q117R, Q120L

ELISA (OD): 1.27 OD
B35: 01H05R3 His-tagged VHH (VHH)
VHH: B32 VHH with E1Q, S30G, A35G, G37A, V66M, R78K, G107S
